Measured values reported in patent US20240294593A1 (Genentech, published 2024).

How the values were obtained:
[1] = target: T1, human PD-1-His (human, UniProt Q15116 25-167, limits assumed); experiment: Octet (BLI), bivalent IgG1 mAb
T1 construct: Antigen of the Octet assays; not shown: His tag

[2] = target: T1, human PD-1-His; experiment: Octet (BLI), bivalent IgG1 mAb; legend calls the constant apparent (KDapp)

T1 sequence (Q15116 25-167 limits assumed): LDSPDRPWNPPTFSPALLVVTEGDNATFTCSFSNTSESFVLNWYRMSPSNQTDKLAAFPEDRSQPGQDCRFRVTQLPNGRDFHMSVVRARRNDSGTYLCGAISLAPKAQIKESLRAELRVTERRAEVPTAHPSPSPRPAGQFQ

B1: H1.178_L1.140 (XENP32424) (antibody, V domains shown)
VH: EVQLVESGGGLVQPGGSLRLSCAASGFTFSSLGMHWVRQAPGKGLEWVSYISGGSSIIYYADSVKGRFTISRDNAKNSLYLQMNSLRAEDTAVYYCARGGFLVFSPDYWGQGTLVTVSS
VL: DIVMTQSPDSLAVSLGERATINCKSSQSLLHSGNQYNYLTWYQQKPGQPPKLLIYWASTRESGVPDRFTGSGSGTDFTLTISSLQAEDVAVYYCQNDYTYPFTFGSGTKLEIKR
notes: VH-F34L/S55G/R109F/W112F, VL-N31H/K36Y/S99T (Xencor #); Kabat positions VH-32/52A/97/100, VL-27D/30/93; also called mAb C[PD-1]_H1.178_L1.140; copies: 2 + 2
B1 showed a koff [1] of 0.000182 s⁻¹, a kon [1] of 184000 M⁻¹ s⁻¹ and a Kd [2] of 0.986 nM.

B2: H1.179_L1.140 (XENP32425) (antibody, V domains shown)
VH: EVQLVESGGGLVQPGGSLRLSCAASGFTFSSLGMHWVRQAPGKGLEWVSYISGGSSIIYYADSVKGRFTISRDNAKNSLYLQMNSLRAEDTAVYYCARGGYLVFSPDYWGQGTLVTVSS
VL: DIVMTQSPDSLAVSLGERATINCKSSQSLLHSGNQYNYLTWYQQKPGQPPKLLIYWASTRESGVPDRFTGSGSGTDFTLTISSLQAEDVAVYYCQNDYTYPFTFGSGTKLEIKR
notes: VH-F34L/S55G/R109Y/W112F, VL-N31H/K36Y/S99T (Xencor #); Kabat positions VH-32/52A/97/100, VL-27D/30/93; also called mAb C[PD-1]_H1.179_L1.140; copies: 2 + 2
B2 showed a koff [1] of 0.00017 s⁻¹, a kon [1] of 197000 M⁻¹ s⁻¹ and a Kd [2] of 0.864 nM.

B3: H1.181_L1.140 (XENP32427) (antibody, V domains shown)
VH: EVQLVESGGGLVQPGGSLRLSCAASGFTFSSLGMHWVRQAPGKGLEWVSYISGGSSIIYYADSVKGRFTISRDNAKNSLYLQMNSLRAEDTAVYYCARGGQLVFSPDYWGQGTLVTVSS
VL: DIVMTQSPDSLAVSLGERATINCKSSQSLLHSGNQYNYLTWYQQKPGQPPKLLIYWASTRESGVPDRFTGSGSGTDFTLTISSLQAEDVAVYYCQNDYTYPFTFGSGTKLEIKR
notes: VH-F34L/S55G/R109Q/W112F, VL-N31H/K36Y/S99T (Xencor #); Kabat positions VH-32/52A/97/100, VL-27D/30/93; also called mAb C[PD-1]_H1.181_L1.140; copies: 2 + 2
In the case of B3, the koff [1] is reported as 0.000173 s⁻¹, the kon [1] is reported as 191000 M⁻¹ s⁻¹ and the Kd [2] is reported as 0.905 nM.

B4: H1.182_L1.140 (XENP32428) (antibody, V domains shown)
VH: EVQLVESGGGLVQPGGSLRLSCAASGFTFSSLGMHWVRQAPGKGLEWVSYISGGSSIIYYADSVKGRFTISRDNAKNSLYLQMNSLRAEDTAVYYCARGGLLVFSPDYWGQGTLVTVSS
VL: DIVMTQSPDSLAVSLGERATINCKSSQSLLHSGNQYNYLTWYQQKPGQPPKLLIYWASTRESGVPDRFTGSGSGTDFTLTISSLQAEDVAVYYCQNDYTYPFTFGSGTKLEIKR
notes: VH-F34L/S55G/R109L/W112F, VL-N31H/K36Y/S99T (Xencor #); Kabat positions VH-32/52A/97/100, VL-27D/30/93; also called mAb C[PD-1]_H1.182_L1.140; copies: 2 + 2
Binder B4 has a koff [1] of 0.000176 s⁻¹, a kon [1] of 187000 M⁻¹ s⁻¹ and a Kd [2] of 0.943 nM.

B5: H1.183_L1.140 (XENP32429) (antibody, V domains shown)
VH: EVQLVESGGGLVQPGGSLRLSCAASGFTFSSLGMHWVRQAPGKGLEWVSYISGGSSIIYYADSVKGRFTISRDNAKNSLYLQMNSLRAEDTAVYYCARGGVLVFSPDYWGQGTLVTVSS
VL: DIVMTQSPDSLAVSLGERATINCKSSQSLLHSGNQYNYLTWYQQKPGQPPKLLIYWASTRESGVPDRFTGSGSGTDFTLTISSLQAEDVAVYYCQNDYTYPFTFGSGTKLEIKR
notes: VH-F34L/S55G/R109V/W112F, VL-N31H/K36Y/S99T (Xencor #); Kabat positions VH-32/52A/97/100, VL-27D/30/93; also called mAb C[PD-1]_H1.183_L1.140; copies: 2 + 2
B5 showed a koff [1] of 0.000178 s⁻¹, a kon [1] of 187000 M⁻¹ s⁻¹ and a Kd [2] of 0.952 nM.

B6: H1.184_L1.140 (XENP32430) (antibody, V domains shown)
VH: EVQLVESGGGLVQPGGSLRLSCAASGFTFSSLGMHWVRQAPGKGLEWVSYISGGSSIIYYADSVKGRFTISRDNAKNSLYLQMNSLRAEDTAVYYCARGGDLVFSPDYWGQGTLVTVSS
VL: DIVMTQSPDSLAVSLGERATINCKSSQSLLHSGNQYNYLTWYQQKPGQPPKLLIYWASTRESGVPDRFTGSGSGTDFTLTISSLQAEDVAVYYCQNDYTYPFTFGSGTKLEIKR
notes: VH-F34L/S55G/R109D/W112F, VL-N31H/K36Y/S99T (Xencor #); Kabat positions VH-32/52A/97/100, VL-27D/30/93; also called mAb C[PD-1]_H1.184_L1.140; copies: 2 + 2
Binder B6 has a koff [1] of 0.000188 s⁻¹, a kon [1] of 236000 M⁻¹ s⁻¹ and a Kd [2] of 0.798 nM.

B7: H1.185_L1.140 (XENP32431) (antibody, V domains shown)
VH: EVQLVESGGGLVQPGGSLRLSCAASGFTFSSLGMHWVRQAPGKGLEWVSYISGGSSIIYYADSVKGRFTISRDNAKNSLYLQMNSLRAEDTAVYYCARGGHLVFSPDYWGQGTLVTVSS
VL: DIVMTQSPDSLAVSLGERATINCKSSQSLLHSGNQYNYLTWYQQKPGQPPKLLIYWASTRESGVPDRFTGSGSGTDFTLTISSLQAEDVAVYYCQNDYTYPFTFGSGTKLEIKR
notes: VH-F34L/S55G/R109H/W112F, VL-N31H/K36Y/S99T (Xencor #); Kabat positions VH-32/52A/97/100, VL-27D/30/93; also called mAb C[PD-1]_H1.185_L1.140; copies: 2 + 2
B7 was tested, and the koff [1] was 0.000169 s⁻¹, the kon [1] was 160000 M⁻¹ s⁻¹ and the Kd [2] was 1.06 nM.

B8: H1.186_L1.140 (XENP32432) (antibody, V domains shown)
VH: EVQLVESGGGLVQPGGSLRLSCAASGFTFSSLGMHWVRQAPGKGLEWVSYISGGSSIIYYADSVKGRFTISRDNAKNSLYLQMNSLRAEDTAVYYCARGGALVFSPDYWGQGTLVTVSS
VL: DIVMTQSPDSLAVSLGERATINCKSSQSLLHSGNQYNYLTWYQQKPGQPPKLLIYWASTRESGVPDRFTGSGSGTDFTLTISSLQAEDVAVYYCQNDYTYPFTFGSGTKLEIKR
notes: VH-F34L/S55G/R109A/W112F, VL-N31H/K36Y/S99T (Xencor #); Kabat positions VH-32/52A/97/100, VL-27D/30/93; also called mAb C[PD-1]_H1.186_L1.140; copies: 2 + 2
B8 showed a koff [1] of 0.000179 s⁻¹, a kon [1] of 189000 M⁻¹ s⁻¹ and a Kd [2] of 0.945 nM.

B9: H1.187_L1.140 (XENP32433) (antibody, V domains shown)
VH: EVQLVESGGGLVQPGGSLRLSCAASGFTFSSLGMHWVRQAPGKGLEWVSYISGGSSIIYYADSVKGRFTISRDNAKNSLYLQMNSLRAEDTAVYYCARGGWLVFSPDYWGQGTLVTVSS
VL: DIVMTQSPDSLAVSLGERATINCKSSQSLLHSGNQYNYLTWYQQKPGQPPKLLIYWASTRESGVPDRFTGSGSGTDFTLTISSLQAEDVAVYYCQNDYTYPFTFGSGTKLEIKR
notes: VH-F34L/S55G/R109W/W112F, VL-N31H/K36Y/S99T (Xencor #); Kabat positions VH-32/52A/97/100, VL-27D/30/93; also called mAb C[PD-1]_H1.187_L1.140
With B9 the koff [1] was 0.000198 s⁻¹, the kon [1] was 193000 M⁻¹ s⁻¹ and the Kd [2] was 1.03 nM.
